Laboratory results from patent US20170095421A1, “SYNTHETIC PLATELETS” (Maria I. C. Gyongyossy-Issa, priority 2006, published 2017).
Where no end group is shown, it is not given here. [ ]: non-standard residue; d: D form.

Tests used:
purified vWf = biological target: T1, purified vWf (Homo sapiens, UniProt P04275); experiment: Random 15-mer D-peptide array probed with purified vWf; format: binding; conditions: peptide on cellulose membrane, detection with anti-human vWf IgG-HRP
T1 construct: gift of Dr. F. A. Ofosu, McMaster University
From the text: Random D-amino acid peptides (15 mer) were synthesized and probed with vWf to detect random sequences capable of binding vWf.
Random peptide arrays of 1120 peptides made of D-amino acids were synthesized on a cellulose membrane using an AutoSpot ASP 222 peptide synthesizer (ABiMED, Langenfeld, Germany). The resulting replicate libraries of 15-mer sequences were probed for vWf binding function by exposing the membranes to purified vWf (a gift of Dr. F. A. Ofosu, McMaster University, Hamilton ON, Canada) and blocking with milk, then identifying positive spots with a polyclonal goat anti-human vWf IgG coupled to horseradish peroxidase (Cedarlane, Canada). Immunochemical detection was done using the chemiluminescent substrates from the Amersham Pharmacia ECL kit; and the resulting spots were recorded on photographic film. Negative controls consisted of probing the membranes with the antibodies only, but without prior exposure of the membrane to purified vWf.
Peptides on random 15-mer peptide arrays that were built of D-amino acids were selected by their binding of vWf. Four sequences were identified: D-pep1-VSRQNGKQYWAIKEG (SEQ ID NO:1); D-pep2-WQNEGTHVLSRCYEC (SEQ ID NO:2); D-pep3-RSARMQVCWNAFKNR (SEQ ID NO:3); and D-pep4-DSCPRDWDNNFLFFE (SEQ ID NO:4). […] The identification of each vWf-peptide binding interface constitutes the results that follow.
Source—a random d-peptide array was probed with vWf and developed with […]. “Forward” D-amino acid peptides were tested, although L-amino acid versions of the peptides as well as the reverse (retro) of both L- and D-sequences will be also encompassed within the scope of these receptor molecules.

purified GPIb = purified GPIb (Homo sapiens, UniProt P07359); experiment: Overlapping vWf L-peptides on cellulose membrane probed by purified GPIb; format: binding; conditions: detected by anti-GPIb coupled to HRP
Description: The vWf amino acid sequence was used to generate 10-mer L-amino acid overlapping peptides, shifted by two (2), according to the following pattern:
These peptides were synthesized and remained attached on the cellulose membrane. The membranes were probed by purified GPIb which was detected by anti-GPIb coupled to horseradish peroxidase (HRP). A number of positive spots were found whose sequences were derived from their positions on the membrane.
The sequences were analyzed in silico by (a) finding their positions in a 3D model of the parent protein (see FIG. 17) and then (b) relating that position to the potential vWf-GPIb interactive site.

[1] = Stability of the covalent linkage of peptide to hydrogel liposomes (Trp fluorescence); format: physicochemical; conditions: hypothermic liquid storage, 4° C., under nitrogen, in the dark
Description: In brief: fluorescence emission at 348 nm (excitation 280 nm) of the single tryptophan of peptide D-Pep3 was used to analyze the stability of the peptide on the liposomes' surface. Fluorescence emission standard curves of trp-associated fluorescence were prepared using a range of concentrations from 1 μM to 20 μM free peptide D-Pep3 in the presence of 1 mM PEG2000 or HL liposomes (FIG. 34).
HL and PEG2000 liposomes were reacted with D-Pep3 peptide (as described according to Scheme 1) then washed and adjusted to a concentration of 1 mM lipid. The fluorescence emission was measured. The samples were stored under nitrogen, in the dark, at 4° C. for one month. The liposomes were again washed, resuspended to the same lipid concentration and the fluorescence emission was measured as before (FIG. 35). The attachment was stable for >1 months in hypothermic liquid storage.

vWf = biological target: T2, vWf (Homo sapiens, UniProt P04275); experiment: Capture of vWf from plasma cryoglobulin fraction; format: binding; conditions: human cryoprecipitate 1/100, 1 hour at 37° C., anti-vWf-FITC
T2 construct: mixed with 5 μL human cryoprecipitate diluted 1/100 in Hepes Buffered Saline; from tissue; host or cells: human plasma cryoprecipitate
Description: Aliquots of 30 μL of HL or D-Pep3-HL liposomes were mixed with 5 μL human cryoprecipitate diluted 1/100 in Hepes Buffered Saline, (10 mM Hepes, 154 mM NaCl, pH 7.4.) The samples were diluted in buffer to achieve final lipid concentrations of 0.1, 0.25, 0.5, 0.75 and 1 mM, and incubated for 1 hour at 37° C. Anti-vWf-FITC antibodies were added (final dilution 1/128) and incubated for 40 minutes at RT. Samples were diluted with 350 μl of formal-saline and analyzed by flow cytometry.

platelets = experiment: P-HL interaction with platelets in plasma (flow cytometry, co-aggregates); format: cell-based; conditions: 0.75 mM lipid, washed platelets, one hour at room temperature
Description: Red anti-Cd42-PE antibodies (7 μL) to detect platelets and 5 μL green anti-vWf-FITC antibodies at a 1/160 dilution were added to the tubes and incubated one more time for 30 min. The samples were diluted to 1 mL with formolsaline solution and analysed by flow cytometry. Singlet platelets (platelet gate), singlet liposomes and co-aggregates (P1 gate) were scored.
The post-stained aggregates were positive for CD42 (GPIb) and vWf. All the relevant controls were done, and the critical double stained examples (with anti-CD42-PE and anti-vWf-FITC) were as follows:
FIG. 37A: platelets alone, double stained with anti-CD42-PE and anti-vWF-FITC FIG. 37B: HL (control liposomes), double stained FIG. 37C: P-HL (D3-peptide hydrogel liposomes), double stained FIG. 37D: HL+platelets, (double stained) FIG. 37E: P-HL+platelets, (double stained)

VSRQNGKQYWAIKEG (not fully specified) [D-pep1]
binding of vWf (purified vWf): binding to vWf

SHAYIGLKDR [L-brown]
binding of GPIb (positive spots) (purified GPIb): +ve

DSCPRDWDNNFLFFE (not fully specified) [D-pep4]
binding of vWf (purified vWf): binding to vWf

RSARMQVCWNAFKNR (not fully specified) [D-pep3]
binding of vWf (purified vWf): binding to vWf

WQNEGTHVLSRCYEC (not fully specified; cysteine pairing not given here) [D-pep2]
binding of vWf (purified vWf): binding to vWf

EVLKYTLFQI [L-black]
binding of GPIb (positive spots) (purified GPIb): +ve

D-Pep3-HL: D-Pep3 peptide covalently attached by Michael addition to hydrogel-liposomes ([dR][dS][dA][dR][dM][dQ][dV][dC][dW][dN][dA][dF][dK][dN][dR]; also: covalently attached to PEG hydrogel-coated liposome by Michael addition (Cys thiol or amines))
stability of the peptide attachment [1]: > 1 months
binding (capture) of vWf (vWf): able to bind their specific ligand
aggregate formation with platelets (platelets): form aggregates
